From patent US8563685B2, “Fatty acid formulations and oral delivery of proteins and peptides, and uses thereof” (priority 2004, dated 2013)

Legend:
chymotrypsin [1] = test: In vitro enzyme (chymotrypsin) resistance, HIM2 and Zn HIM2 complexes; format: in vitro ADME; details: 37° C., 0.3 mg/mL protein
Method: (§1) This sample serves as T=0. […] The half life was calculated using the equation: t1/2:=−0.693/slope.

chymotrypsin [2] = test: In vitro enzyme (chymotrypsin) resistance, IN105 and Zn IN105 complexes; format: in vitro ADME; details: 37° C., 0.6 mg/ml protein
Method: as §1

Substance | T half (chymotrypsin [1]) [min] | T half (chymotrypsin [2]) [min]
HIM2 (R-type zinc complex): R-type Zn complex of HIM2, 1.1% w/w zinc, 0.1 to 0.25% w/w phenol | 19 to 21 | –
IN105 (R-type zinc complex): R-type Zn complex of IN105, 1.85% w/w zinc, 2.37% w/w phenol (as reaction 9.6.1) | – | 55.3
